Assays:
Assay type in all cases: physicochemical
[1] = Critical micelle concentration by isothermal titration calorimetry; settings: 25 mM Tris-192 mM Gly, pH 8.4 buffer
Method: Critical micelle concentration of SDS in Tris-Gly buffer was determined as follows. The critical micelle concentration (CMC) of SDS in 25 mM Tris-192 mM Gly, pH 8.4 buffer was 4.3 mM, as measured by isothermal titration calorimetry. In this example, the kinetics of denaturation and renaturation of proteins in concentrations of SDS below the CMC were studied. The difference in kinetics of denaturation of the two proteins may also occur in concentrations of SDS above the CMC.

[2] = Net charge of protein (capillary electrophoresis, charge ladder)
Method: BCA-Ac18 was synthesized by reacting the lysine residues of BCA with acetic anhydride in 100 mM HEPES buffer, pH 8.2. The N-terminus of BCA was acetylated posttranslationally. The final product contained ˜90% of BCA-Ac18 and 10% of BCA-Ac17, as determined by peak areas in an electropherogram from separation by capillary electrophoresis. The net charge of BCA in Tris-Gly buffer was about −3, and the net charge of BCA-Ac18 was about −19. It is believed that the difference in charge between BCA and BCA-Ac18 was less than 18 full units of charge due to charge regulation-adjustment of protonation states of other ionizable groups on the protein to counteract the increasing electrostatic potential on its surface.
For any charge ladder of BCA, as the number of modifications (n) increases, the total charge on the protein becomes more negative, and the surface of the protein becomes more hydrophobic due to conversion of NH3^+ groups to NHCOR groups. Native BCA has a charge of ˜−2.9 at pH 8. The charge on the early rungs of the ladder increased linearly with the number of acylations; each rung adds an additional charge of ˜−0.9. Therefore, for example, BCA-Ac8 has a charge of ˜−10. The later rungs of the ladder may differ by <0.9 units of charge. Using the Linderstrom-Lang model of cooperativity in proton binding, the charge on BCA-Ac18 was calculated to be −19. The mobility of a given rung of BCA-Acn may have nearly the same mobility as the corresponding rung of BCA-Hexn. Thus, the charges of the BCA-Hexn may be indistinguishable from those of BCA-Acn for a given rung number. (Small deviations in mobility between later rungs of the two ladders may be due either to a change in charge or a change in drag between the two ladders. It can be assumed that any differences in the mobilities are due to additional drag from the hexanoyl groups relative to the acetyl groups.

[3] = Refolding of SDS-denatured protein by dilution or removal of SDS, monitored by DNSA fluorescence
Method: Monitoring refolding of BCA and BCA-Ac18 was performed as follows. The proteins (10 micomolar) were denatured in 10 mM SDS for 24 h. […] Refolding was initiated by dilution of an aliquot of the denatured sample to a final concentration of protein of 200 nM, with varying concentrations of SDS in the buffer. Immediately prior to the measurement, an aliquot of renaturing protein was mixed with an equal aliquot of DNSA. The rate constants for renaturation were determined by fitting the data to FU=FUmax(1-e^−kt)+FUmin. The refolding experiments at 37° C. were performed similarly.
The kinetics of refolding were determined as follows. The rates of refolding of BCA and BCA-Ac18 from the fully denatured states (in 10 mM SDS) were measured by dilution of the solutions into buffers containing concentrations of SDS from 0.1 to 2 mM, using the fluorescence of DNSA as a marker for the appearance of the folded state. […] As in denaturation studies, an aliquot of solution of the protein and SDS was mixed with an equal aliquot of solution of DNSA with the same amount of SDS immediately prior to the measurement to eliminate the possibility of DNSA influencing refolding kinetics. The buffer also contained 100 micromolar ZnSO4 to ensure that the folded protein could incorporate a Zn(II) cofactor.
The raw data emphasize the decrease in the yield of folded protein with increasing concentration of SDS. […] The half-lives (t1/2) for renaturation were determined, where possible, by fitting the data to FU=FUmax(1-exp(−t/t1/2))+FUmin; the fits are shown (solid lines). The tables provide data for refolding in 0.1 and 0.4 mM SDS as well as for concentrations on the graphs for comparison. […] The error bars represent the difference between the average and the largest and smallest values measured from at least three replicate measurements.

[4] = Unfolding (denaturation) of protein in SDS in Tris-Gly buffer, monitored by DNSA fluorescence
Method: Monitoring unfolding of BCA and BCA-Ac18 was performed as follows. The proteins (200 nM) were incubated in different concentrations of SDS in Tris-Gly buffer. A 100 microliter aliquot of protein-SDS solution was mixed with 100 microliters of DNSA solution (30 micromolar) with the same concentration of SDS, and measured the intensity of fluorescence (Perkin-Elmer LS50B spectrometer, λex=280 nm, λem=460 nm) as a function of time. The denaturation of BCA was continuously monitored in concentrations of SDS above 4 mM. The rate constants were determined for denaturation by fitting the intensity vs. time data to FU=FUmaxe^−kt+FUmin. Unfolding experiments at 37° C. were performed similarly, with samples stored in a dry bath incubator (Fisher Scientific).
The kinetics of unfolding were determined as follows. The rates of denaturation of BCA and BCA-Ac18 were measured by incubating the protein (200 nM) in solutions of different concentrations of SDS. Immediately prior to the measurement, an aliquot of solution containing protein and SDS was mixed with a solution containing DNSA and the same concentration of SDS; this protocol minimized the possibility that DNSA might stabilize the native conformation of the protein, and influence the rate of its denaturation. When BCA was denatured in concentrations of SDS of 4 mM and higher, DNSA was added to the original, denaturing solution because the rate of denaturation was too fast to follow with manual mixing of aliquots of protein and DNSA. It was observed that DNSA, when present with the protein in the denaturing solution, reduced the rates of denaturation by factors of about 2-10.
FIG. 1 plots the fluorescence of DNSA, normalized to the signal at t=0, as a function of time of incubation of samples of BCA and BCA-Ac18 in various concentrations of SDS. The decrease in the intensity of fluorescence of DNSA, and thus in the amount of folded protein, followed first-order kinetics. Denaturation of proteins with surfactants probably proceeds through intermediates, but when using a marker that is specific to the folded active site of carbonic anhydrase, transitions beyond the initial unfolding of the three-dimensional structure of the protein were not detected.
The tables list the half-lives (t1/2) for denaturation of BCA and BCA-Ac18 at several concentrations of SDS. The denaturation of BCA at 4 mM occurred very rapidly, and data are not shown to avoid overlap with data at 3.5 mM. The error bars represent the difference between the average and the largest and smallest values measured from at least three replicate measurements.

[5] = Refolding after 1 week incubation at intermediate SDS concentrations (aggregation test)
Method: Aggregation was tested by renaturing the proteins from a denatured state at 10 mM SDS to 0.1 mM SDS, but through an incubation step at intermediate concentrations of SDS, instead of renaturing by rapid dilution from 10 mM SDS to 0.1 mM SDS directly (i.e., 10 mM SDS→2.5 mM SDS→0.1 mM SDS instead of 10 mM SDS→0.1 mM SDS). For incubation, concentrations of SDS were chosen in which aggregation was believed to occur on a similar or shorter time scale as refolding. The protein-SDS complex was diluted from 10 mM SDS to 2.5-0.7 mM SDS, the proteins were incubated for 1 week at those concentrations, and the samples further diluted to 0.1 mM SDS to initiate fast refolding.
The fluorescence signal from DNSA was normalized to that of refolded protein by rapid dilution from 10 to 0.1 mM SDS.

[6] = Denaturation of BCA charge ladders in 3 mM SDS (dialysis cassette) followed by capillary electrophoresis, with transition-state model fit; settings: for b coefficient of fit ΔG‡=a+bn+cn^2: 3 mM SDS; for Chydro (hydrophobic contribution to ΔΔG‡): per acylation
Method: Denaturation experiments were performed as follows. A charge ladder of BCA (BCA-Acn or BCA-Hexn, 1 mL of 100 micromolar total protein in Tris-Gly buffer) was placed in a dialysis cassette (MW cutoff of 10 kDa). The dialysis cassette was placed in a 1 L bath of 3 mM SDS in Tris-Gly buffer at room temperature. The buffer was changed every 24 h. At regular intervals of time (approximately every half-hour), 100 microliters of the protein solution was removed from the dialysis cassette; ˜7 microliters of that aliquot was diluted 10-fold and the absorbance of the diluted sample at 280 nm (ε280,BcA=57,000 M^−1 cm^−1, the absorption cross section can be assumed to be is unchanged by acylation) was measured to determine the total protein concentration. The aliquot was diluted because the absorbance of the 100 micromolar solution was too high to be read accurately by the ultraviolet spectrometer. This diluted aliquot was discarded. The remainder of the solution was then run on CE. The protein solution, except for the portion diluted for ultraviolet measurement, was returned to the dialysis cassette; the aliquot was outside of the dialysis cassette for ˜5 min.
Capillary electrophoresis experiments were carried out in a Beckman (Fullerton, Calif.) PACE-MDQ system, using a capillary of inner diameter of 50 micrometers of total length of 110.2 cm, 100 cm to the detector. Tris-Gly in D2O was used as the running buffer, and the applied voltage was 30 kV. D2O was used in place of H2O for the electrophoresis buffer because the viscosity of D2O is higher than that of H2O and the higher viscosity minimizes diffusion. Samples were injected using pressure (20 psi) for 30 s. Each sample contained 0.65 mM dimethylformamide as an electrically neutral marker for electroosmotic flow.
The CMC of SDS in the Tris-Gly buffer used in this example was 4.3 mM. 3 mM SDS was chosen for these experiments because this concentration of SDS denatured BCA in an interval of time that was convenient for experimental work using CE. In addition, this concentration of SDS was close to the concentration often used in SDS-PAGE (0.1% or 3.5 mM). 1 mL of a solution of ˜100 micromolar of a charge ladder of BCA, dissolved in Tris-Gly buffer, was placed into a dialysis cassette (molecular weight cutoff of 10 kDa) and the cassette placed in 1 L of Tris-Gly buffer containing 3 mM SDS. The bath was kept at room temperature (˜22° C.) for the duration of the experiment.
At regular intervals of time (approximately every half hour), 100-microliter aliquots of the solutions containing the charge ladder of BCA were removed from the cassette in a bath of 3 mM SDS in Tris-Gly buffer, the total protein concentration in the aliquot was measured using absorbance at 280 nm, and a portion (˜10 nL) of the aliquot injected onto the CE. The unused portions of the aliquots were then returned to the cassette.
Residence time in the detection volume was determined as follows. […] If two proteins with the same absorptivity were present in a sample in equal concentrations, the protein of lower velocity would have a larger measured peak area than the protein of higher velocity. To correct for this experimental bias, the area of each peak was multiplied-by the velocity of the protein (Acorr=Ameasured×LD/tD), where LD is the length of the capillary from the end (where injection occurs) to the detector (100 cm in all of these experiments) and tD is the time it takes for the rung to reach the detector.
Initial differences in concentrations of each rung were as follows. The areas of each of the rungs in the charge ladder were not all equal before denaturation. To measure the fraction of each rung that has denatured at each time, the velocity-corrected area of each rung in the sample was divided by the velocity-corrected area of that rung in the charge ladder run in the absence of SDS.
A comparison of the rates of denaturation follows. […]

## CCCCCCCCCCCCOS(=O)(=O)[O-].[Na+] [SDS, sodium dodecyl sulfate]
[1]
  critical micelle concentration (CMC): 4.3 mM

## BCA-Ac8: rung of the acetyl charge ladder of BCA with 8 acetylated lysines (regioisomers)
[2]; each rung adds ~−0.9
  charge of rung from number of acylations: ~−10

## BCA-Ac18: charge-modified derivative of BCA having all 18 lysine groups acetylated
[3]; dilution from 10 mM SDS
  concentration of SDS at which no refolded protein was observed: ≥ 1600 µM
[3]; solutions with the same concentration of SDS
  rate of refolding relative to BCA: faster than refolding of BCA
[3]; time scales of a month
  range of SDS concentrations in which protein neither refolds nor unfolds at an observable rate (window): 1.6 to 2 mM
[3]; upon complete removal of the SDS
  refolding rate (given as time) after denaturation with SDS: 21 ± 2 min
[2]; Tris-Gly buffer
  net charge: about −19
[4]; 4 mM SDS, Tris-Gly buffer
  t1/2 for denaturation: 30 h
[4]; 4 mM and 10 mM SDS
  difference in denaturation time, BCA-Ac18 vs BCA (factor): ~10^4
[4]; 10 mM SDS, Tris-Gly buffer
  t1/2 for denaturation: 2.67 h
[4]; SDS at and above 2.5 mM
  difference in kinetics of denaturation of BCA and BCA-Ac18 (factor): 10^1-10^4
[4]; SDS below 2 mM, long (~1 month) periods of time
  denaturation in low concentrations of SDS: no denaturation was observed
[4]; Tris-Gly buffer, CMC 4.3 mM
  concentration of SDS at which the protein denatures: ≥ 2500 µM
[4]; change in charge of the protein by a factor of 5
  change in rates of denaturation with SDS, BCA vs peracetylated BCA: −3 orders of magnitude
[4]; from the factor of about 10^4 in rates
  difference in activation energy for denaturation, BCA-Ac18 vs BCA: 5 kcal/mol
[5]; 1 week incubation at intermediate SDS, then 0.1 mM SDS
  yield of refolded protein after incubation, relative to BCA: higher than the yields of BCA
[5]; denatured in 10 mM SDS, incubated 1 week at intermediate SDS, diluted into 0.1 mM SDS
  t1/2 for refolding: 0.292 ± 0.0233 h

## BCA-Acn: charge ladder of BCA prepared with acetic anhydride
[6]
  b coefficient of fit ΔG‡=a+bn+cn^2: 0.50±0.01 kcal/mol of protein
  Chydro (hydrophobic contribution to ΔΔG‡): 0.085 kcal/mol
[6]; model of charge ladder data
  effects of charge on denaturation with SDS relative to effects of hydrophobicity: ~5 fold

## BCA-Hexn: charge ladder of BCA prepared with hexanoic anhydride
[6]
  b coefficient of fit ΔG‡=a+bn+cn^2: 0.33±0.01 kcal/mol of protein
  Chydro (hydrophobic contribution to ΔΔG‡): 0.26 kcal/mol
